Measurements published in a protein production outcome set (Wang et al. 2014).

Assay: label from the status in PepcDB records

| Sequence | protein production |
| --- | --- |
| MIIWSGWGFLVAIIVIINTLLGKAIFGSITGDATYFQDHSWPMAVMFIISGVMSWYLGKYINKPDGKVYIDAETGEKVMFNKKHSLFFIKMEYWGPILGVIAIVTLITR | failed |
| MIKFYQYKNCTTCKKAAKFLDEYGVSYEPIDIVQHTPTINEFKTIIANTGVEINKLFNTHGAKYRELDLKNKLQTLSDDEKLELLSSDGMLVKRPLAVMGDKITLGFKEDQYKETW | not failed |
| MIKGGGGKSSGYSADLMVCFPSRAHLSLPSKSISSPSSSFNRRQNAPHHRRSISKLSSSGGGVRQNRGGGREVVEEPTSPKVTCAGQIKVRSSKRDGGGKNWQSLMAEIEKIHRSKSESKFFGIKRDVMGFLTCLRDFDFRCFGAFPPVDIISDDEEEDEEEEEEDEEEDEDESSGTVFSKWLMVLHEKQNNEECVDGKENVFSDVETAVPPPNALLLMRCRSAPVKNWSEEKKEETEEGDNRVKQSGEEEEEEKDRVGNKKDLRSLMEEEKKMNLVVMNYDTNYYKLSNDIAKETWVVGGIQDPLFRSRSWKK | failed |
| MIKIAVIAGGSFDCLPEPADLYVGVDAGSLRLLDHSLPLDWAIGDFDSVTSEELGQIREMAEQFLQAPAEKDDTDLELALKEIFKAYPQAQVRIYGALGGRMDHMMSNLFLVAEPDLAAYMEQIELVDSQNVVRFRPAGSHRISPIAGMKYISFMPSDQSHLTIRYAKYPLDASNYFFKKCYASNEFIDRDIDIQLDQGYVVLIYSKDKD | failed |
| MIKKFKNYDQIIKELFVIAIPTAFESLLFQMVTFFDNFMISYLGSFHVTGVSLANRVTFLFFIIVFGLGTALSAYVSQAIAKKKFLQVRQSFAYILLIGTTIGIIFFIFSFLFPRNIIKLFTANQDSLNFGSEYLKIISLSYVLMAYSFLSAMGFKSAKEVKIPLYVTSIVVLINIVFNYILIFGFSMGIKGAAYATVLARIVEFVFYFLYSLISSNSYYRIKFGDFFAPKVVTRANLKLIIPVLSHEIFWVLSITILHAFYARVGSIEYASFAVASNLFDICFVLLHGMGLATGVVIGHLMIYDKKHVRSVGFFLSFLGFLLGIFVVILLIGISSFAPYIFSKLDSPELVSVFIYVFASIVIFKAFTAQVLVGVFRASGIPNVCFFIESGVIVFYTLPVAYLLVFYTNLSLPIVVFIVNLEEIIKNIFIIIEFFHDDWIREIEYEELA | failed |
| MIKLKNDRLEVEIDNMGAQLTHVIGNESGYDYIWNGDAWKKHAPILFPAIGKSNNDEYVVDGKTYRMPQHGFARDFDWQKVNQAENRVMLELKSNAKTKEMFPFDFTLQVEYKLDQNQLLIGYRVINNDQRMMPYALGSHPAFNLPIDDDGVFEDYRLTFGPKQKQIKRLGVGPIPFRDGTEAPYPSIQASELALNHEMFDDGLIILNAKKLENVTLHSNQTAHEVKLNIKQFPYLTLWAMEHETQPFICIEPFAGLPDQASDQPTDWNNKKGNNLLEAGESHTFEYGIEFK | failed |
| MIKLNRDQKLTYKFLIIPIALLILSFNPYTESLEFSLPAVYMASHYAVYFSGLYIGYKYFKGGYISLILGLIPAVLWHSPYFFSLGAAMLDYRILLEITLLFGGVLLGSSINSMRLQIKITLLALWMLGDSILAILFITSTPLYSNLAYPFSPYTPSSLPLAGILMFVIMNVFLIYVISKFMKSIIG | failed |
| MIKRLKVNVIDLSSLVYLIFAVIPLFTFDLKGPYWMYVIIFIIFTISYTALAIFTEVLSTKMIYTFLILHYIGITYLVYSVGPATSLFFFFSSFILPYVLKVKMKSIAFLIFIVVMLINFILIYVADPLSLGFIAVMHIAILLITVGNFKQSETIKMKNALEEKNKHINVLIAEQERNRIGQDLHDTLGHVFASSSIKSELAIKLIDSDSEKAKLQMIEVNNISKESLNKVRSIVNDLKIQSFEEEVASMETLLKNANLNFEFFNAELAKGISPAKQAILAMILREAINNVLKHAHATSVTGSLTETQNDITLTIIDNGIGMDDLKEHDLKSIKERVALMNGSIEIQSNHGLCISIKISRGDA | failed |
| MIKRLTISPLFLILSLIAYYLSRNDILLYSTLSTILFWTFIILILPTSFYNYIKDGIVKYCKKKIFWFTVGLYISYHVILYSFFFYLLLPGSIKNISFWFSFNAGIGYSIPPPITYFLEWVSNSPAIWFFIGPYEGDVIPFSTFLGVVLALLIGLNVMKILELWGISNKLSKSIVLIPSLGVVSGSSCCVFLPSIVMYSIALSISSITATILSILSSFAYFILAYYALPIVSAIVLFHNLTMLNRLIKKLSFTM | failed |
| MIKSSSKIGLAFFVRPQFDVDLAKNFFNKVQDSLKEAGIATQVFELPVSTDAEALSLAESVNSHQDLHGLIVVQGTFCDASLILNLASNINLPIMIWATKEQPTGGRLSLNSFCGLNLGAHTLVNAGIKFKGVYGSPGSPAVIKKVTSFARAAGAVKWLKGKRIGLFGHRPSGYYPSNFNEILLRKQFGITVEYLSLSEVFSLAQKMEIKDIQPFINTLVGVEGLEMVSTSKSVQAYLALKELIAQKALDAVAVECWPEFMAGFGGAVCYALSRLNDEGIVAACEADVNGAVTMLLGSYLSSQANFIADLVGAEEEQNQLIFWHCGNGPLSLAAPGTNPVAGVHPNRKTPLAMYFPLKGGPVTVSRLSSDHNGNLRLFLGSGTGIETDLLYSGNSLPIQISGSVEETLDTILCEGIEHHYIVTYGDLTSEFREIAELLGLRMITFLEHHHHHH | failed |
| MILAIDLGTSGAKAAIIDSAGAVHEQTFVPYSTTKLPNGGVEQDPMQWVSAARQAVTRLPRSYSVVSFTGQMQDLICLDRAGRPLGQALLYNDARAAAEAARLNTVVPEWKDITGNRQTATSTAAMWLRLMEQSD | failed |
| MILEFKSEKKMINFSKSFFYPLPIGKIFVLSGDMGSGKTSFLKGLALNLGISYFTSPTYNIVNVYDFINFKFYHIDLYRVSSLEEFELVGGLEILMDLDSIIAIEWPQIALSIVPKDRLFSLTFKIVGSGRVVELNGLEHHHHHH | not failed |
| MILGIDIGGANTKITELHENGEFKVHHLYFPMWKNNDKLAEVLKTYSKDISHVALVTTAELADSYETKKEGVDNILNAAESAFGSNISVFDSDGNFISLEGAKTNYMKVSASNWCGTAKWVSKNIEENCILVDMGSTTTDIIPIVDGKVVAEKTDLERLMNHELLYVGTLRTPISHLGNTILFKGVNTNVSSEYFAITADISVVLEKVTTEEYTCDTPDGKGTDKRSSLVRISKVLCSDLDQISEIDAENIAKTYYELWKELILENVKKVAEKYGSKKVVITGIGENILKDALGDFEVISVAERYGKDVSLATPSFAVAELLKNELLEHHHHHH | not failed |
| MILINKRAEKQDYQTILAIWEKSVIVTHDFLTAEDRQFYKEQIPLFLDNVELFLWFAGEEVIGFSGTSERELDMLFLDPVATGNGYGSQILGWLIENKRINLVDVNEQNENATRFYLKHGFVVSSRSDLDGFGKPYPILQLQLK | not failed |
| MILKRAYDVTPQKISTDKVRGVRKRVLIGLKDAPNFVMRLFTVEPGGLIDRHSHPWEHEIFVLKGKLTVLKEQGEETVEEGFYIFVEPNEIHGFRNDTDSEVEFLCLIPKEGGE | not failed |
| MILLKSLYKGFFAAMKEENFEARCYNREKGGCVLIKTMQYKKTMATVVALIVALLLFGLIYDLLGVQKNELAAQKSAQPKVKTARVVANGDILIHDILYMSARKADDTYDFTPYFEYVKDWISGADLAIGDYEGTISPDYPLAGYPLFNAPEEIAGALKNTGYDVVDLAHNHILDSQLDGALNTKKVFHQLGIDSIGIYDKDRSKESFLIKNVNGIKIAILGYSYGYNGMEATLSQEDYEKHMSDLDEAKIKKELQLAEKKADVTIVMPQMGTEYALEPTAEQKELYHKMIDWGADVVLGGHPHVIEPSETVIKGRQKKFIIYSMGNFISNQRLETVDDIWTERGLLMDLTFEKKDNKTKIKTVEAHPTMVLAKGKGIVGKEGFELYNYRTMVLEDFIKGGKYHDKIDEETKAKVALAYQEINDLVNLKW | failed |
| MILLTSVLAIVSVILLTLPLLEAYSLNSSLVGGAVSPGATYSYKMNAVLINFYHNNSISHLLGNFSFTTGYINITMENGYATFSVKLYGQPAGENVTLADSFVLKASDHSSLFESFFPSGLVEAGEFVNVFNNTGQYYGAASAFSSVNVGKGTLFSTSQMVKLINVPEQPSGYFENVSRELNANSVYYIESPSHSFLSHIVFTGNSTVISALLGSSSVSNVTLLYISLEKTDVAVETLNVMHYVMHYIAVVVILWILGVVYMISLYRRVSLKQRR | failed |
